# Laboratory results published in patent US6881824B1, “Peptides suitable for use in antigen specific immunosuppressive therapy” (Akzo Nobel N.V., priority 1996, dated 2005).
# Molecular target: T1, DR4 (DRB1*0401) molecules purified from the homozygous EBV-transformed human B lymphoblastoid cell line … (human, UniProt P01903 26-254)
# T1 construct: mature; That form is inferred from purification of the native complex
# Experiment: competition binding assay on purified DR4(DRB1*0401)
# Details: not given
row,Molecule,binding result
1,FSKIASNTQSRRTFIK (This is probably a misprint) [HC gp-39 peptide 15 (residues 106-121)],binds
2,THIIYSFANISNDHID [HC gp-39 peptide 6 (residues 52-67)],binds
3,LDRFLCTHIIYSFANI [HC gp-39 peptide 5 (residues 46-61)],binds
4,SCFPDALDRFLCTHII [HC gp-39 peptide 4 (residues 40-55)],binds
5,DFQGSFCGQDLRFPLT [HC gp-39 peptide 57 (residues 358-373)],binds

# Molecular target: T1, DR4 (DRB1*0401) molecules purified from …
# Experiment: not given
# Details: not given
row,Molecule,IC50 [nM]
1,FSKIASNTQSRRTFIK (This is probably a misprint) [HC gp-39 peptide 15 (residues 106-121)],< 1000
2,THIIYSFANISNDHID [HC gp-39 peptide 6 (residues 52-67)],< 1000
3,LDRFLCTHIIYSFANI [HC gp-39 peptide 5 (residues 46-61)],< 1000
4,SCFPDALDRFLCTHII [HC gp-39 peptide 4 (residues 40-55)],10000 to 100000
5,DFQGSFCGQDLRFPLT [HC gp-39 peptide 57 (residues 358-373)],1000 to 10000

# System: Balb/c mouse
# Experiment: HC gp-39 administration in Balb/c mice (arthritis)
# Format: in vivo
# Details: administration of HC gp-39
Molecule,Arthritic development,Immunological tolerance
Human Cartilage glycoprotein 39 [HC gp-39],delayed and/or suppressed arthritic development,resulted in immunological tolerance
